Test results published in patent US11820827B2, “Methods of treating myelodysplastic syndrome and acute myeloid leukemia with nonfucosylated anti-CD70 antibodies” (Seagen Inc., priority 2019, dated 2023).
Several values for one entry are separate records, joined by “and”; a condition that tells them apart may be missing. Equal entries are not always repeated.

Assays:
MV4-11 AML xenograft = assay: Tumor growth in the MV4-11 AML xenograft model, SEA-CD70, azacitidine, venetoclax (Example 11); assay type: in vivo, SCID mice; settings: antibody 10 mg/kg Q4dx5, azacitidine 2 mg/kg Q1dx5 3 cycles, venetoclax 25 mg/kg oral Q1dx21; comparisons at day 39
Text: Tumor growth was reported as a volume and calculated as an average across animals within each treatment group (FIG. 11A). Immunocompromised SCID mice were implanted with 5×10e6 MV4-11 cells subcutaneously in the flank on day 0. When mean tumor size of 50 mm^3 (measured by using the formula: Volume (mm^3)=0.5*Length*Width^2, where the length is the longer dimension) was reached, mice were randomized into treatment groups of 10 mice per group. Stock concentrations of antibody and chemotherapy were diluted to the appropriate concentration and injected into animals at 10 μl/g of body weight. Tumor length and width, and animal weight were measured two times weekly throughout the study and tumor volume was calculated using the formula above. Animals were followed until tumor volume measured ˜1000 mm^3, at which time the animals were euthanized. Animals were dosed on various schedules based on treatment received; animals receiving antibody were treated with 10 mg/kg of antibody (Q4dx5), azacitidine-treated animals were dosed daily (2 mg/kg) for five consecutive days (Q1dx5) each week, for a total of 3 cycles (3 weeks); venetoclax was given at 25 mg/kg every day by oral gavage for 21 days consecutively (Q1dx21). Animal receiving combination of treatments received each treatment at the same dose and schedule as the single treatments.

[1] = tested on: MV-411 acute myeloid leukemia model; assay: Tumor growth in the MV-411 acute myeloid leukemia xenograft model (Example 7); assay type: in vivo, SCID mice; settings: for tumor volume, individual animals: h1F6SEA 10 mg/kg Q4dx4
CD8 T cells in PBMCs = assay: CD8 T cell depletion in PBMCs; assay type: cell-based, human; settings: 24 hours
Experimental: At the end of the experiment cells were stained with Zombie Aqua Viability Dye and total viable Treg naïve and memory CD4 and CD8 T cell numbers were assessed. […] Fucosylated (WT Clone 13 IgG1) and nonfucosylated (SEA Clone 13 IgG1) antibodies targeting TIGIT were used as positive controls (FIG. 4E-4H).

B1: SEA-CD70: humanized, nonfucosylated monoclonal IgG1 antibody targeting CD70 (nonfucosylated h1F6) (antibody, chains of the INN, looked up, V domains shown)
VH: QVQLVQSGAEVKKPGASVKVSCKASGYTFTNYGMNWVRQAPGQGLKWMGWINTYTGEPTYADAFKGRVTMTRDTSISTAYMELSRLRSDDTAVYYCARDYGDYGMDYWGQGTTVTVSS
VL: DIVMTQSPDSLAVSLGERATINCRASKSVSTSGYSFMHWYQQKPGQPPKLLIYLASNLESGVPDRFSGSGSGTDFTLTISSLQAEDVAVYYCQHSREVPWTFGQGTKVEIK
modifications: nonfucosylated
Question: Which “effect on tumor growth” value (MV4-11 AML xenograft) does the source give for B1 here?
Answer: delay tumor growth

Question: And the “delay in tumor growth” value ([1]; from time to 10× fold change versus untreated, h1F6SEA 10 mg/kg, azacitidine 5 mg/kg)?
Answer: 18%

Question: And the “tumor volume, individual animals” value ([1]; day 9 post implant)?
Answer: 51.0 mm^3 and 59.2 mm^3 and 59.0 mm^3 and 52.1 mm^3 and 54.1 mm^3 and 58.6 mm^3

Question: And the “tumor volume, individual animals” value ([1]; day 13 post implant)?
Answer: 47.1 mm^3 and 56.4 mm^3 and 72.6 mm^3 and 48.7 mm^3 and 68.7 mm^3 and 59.9 mm^3

Question: What about the “tumor volume, individual animals” value ([1]; day 16 post implant) of the same molecule?
Answer: 65.3 mm^3 and 60.4 mm^3 and 98.2 mm^3 and 90.8 mm^3 and 83.5 mm^3 and 67.6 mm^3

Question: What about the “tumor volume, individual animals” value ([1]; day 20 post implant) of the same molecule?
Answer: 63.1 mm^3 and 42.0 mm^3 and 165.9 mm^3 and 151.0 mm^3 and 142.8 mm^3 and 93.1 mm^3

Question: And the “tumor volume, individual animals” value ([1]; day 24 post implant)?
Answer: 161.4 mm^3 and 70.9 mm^3 and 266.6 mm^3 and 336.7 mm^3 and 299.1 mm^3 and 165.4 mm^3

Question: What about the “tumor volume, individual animals” value ([1]; day 27 post implant) of the same molecule?
Answer: 254.6 mm^3 and 0.0 mm^3 and 392.1 mm^3 and 447.0 mm^3 and 337.6 mm^3 and 231.0 mm^3

Question: And the “tumor volume, individual animals” value ([1]; day 30 post implant)?
Answer: 352.6 mm^3 and 0.0 mm^3 and 661.5 mm^3 and 831.7 mm^3 and 494.8 mm^3 and 365.1 mm^3

Question: And the “tumor volume, individual animals” value ([1]; day 34 post implant)?
Answer: 666.1 mm^3 and 15.4 mm^3 and 998.9 mm^3 and 1042.3 mm^3 and 655.6 mm^3 and 531.6 mm^3

Question: What about the “tumor volume, individual animals” value ([1]; day 38 post implant) of the same molecule?
Answer: 988.1 mm^3 and 63.1 mm^3 and 1005.8 mm^3 and 751.7 mm^3

Question: And the “tumor volume, individual animals” value ([1]; day 41 post implant)?
Answer: 66.6 mm^3 and 1024.7 mm^3

Question: And the “tumor growth delay in one mouse of the group” value ([1]; h1F6SEA 10 mg/kg, extended the length of the study)?
Answer: very robust tumor growth delay

Question: What about the “CD8+ cell depletion” value (CD8 T cells in PBMCs; V/V high affinity donor) of the same molecule?
Answer: Neither fucosylated nor nonfucosylated anti-CD70 antibodies depleted CD8+ cells

Question: What about the “CD8+ cell depletion” value (CD8 T cells in PBMCs; low affinity (F/F 158) donor) of the same molecule?
Answer: Neither fucosylated nor nonfucosylated anti-CD70 antibodies depleted CD8+ cells
